T1: GST-Elba1F;GST-Elba2F (Drosophila melanogaster?;Drosophila …, UniProt Q9VR17;Q9VQD6 1-363;1-381, |)
T1 sequence 1: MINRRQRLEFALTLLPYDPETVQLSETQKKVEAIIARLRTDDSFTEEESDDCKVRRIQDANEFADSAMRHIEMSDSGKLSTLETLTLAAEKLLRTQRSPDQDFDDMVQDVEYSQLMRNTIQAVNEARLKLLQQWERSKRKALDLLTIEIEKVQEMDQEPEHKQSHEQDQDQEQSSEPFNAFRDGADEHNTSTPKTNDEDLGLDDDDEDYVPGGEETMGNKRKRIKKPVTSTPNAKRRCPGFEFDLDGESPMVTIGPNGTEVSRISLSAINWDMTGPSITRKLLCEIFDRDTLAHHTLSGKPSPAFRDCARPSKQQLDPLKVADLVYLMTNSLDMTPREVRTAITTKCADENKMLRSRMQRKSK
T1 sequence 2: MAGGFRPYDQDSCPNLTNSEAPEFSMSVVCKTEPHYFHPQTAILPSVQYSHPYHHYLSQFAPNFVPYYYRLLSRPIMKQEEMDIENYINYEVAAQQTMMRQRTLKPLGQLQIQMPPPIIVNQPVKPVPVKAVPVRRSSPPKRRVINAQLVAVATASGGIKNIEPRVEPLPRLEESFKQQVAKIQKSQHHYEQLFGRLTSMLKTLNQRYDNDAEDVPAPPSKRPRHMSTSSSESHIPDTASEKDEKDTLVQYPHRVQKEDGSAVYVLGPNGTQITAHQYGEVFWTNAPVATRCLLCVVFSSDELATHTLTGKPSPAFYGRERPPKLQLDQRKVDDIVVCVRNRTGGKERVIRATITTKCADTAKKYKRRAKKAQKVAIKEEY

T2: FLAG-Elba1F;FLAG-Elba2F;FLAG-Elba3F (Drosophila melanogaster?;Drosophila …, UniProt Q9VR17;Q9VQD6;Q9VR19 1-363;1-381;1-379, ||)
T2 sequence 1: T1 sequence 1
T2 sequence 2: T1 sequence 2
T2 sequence 3: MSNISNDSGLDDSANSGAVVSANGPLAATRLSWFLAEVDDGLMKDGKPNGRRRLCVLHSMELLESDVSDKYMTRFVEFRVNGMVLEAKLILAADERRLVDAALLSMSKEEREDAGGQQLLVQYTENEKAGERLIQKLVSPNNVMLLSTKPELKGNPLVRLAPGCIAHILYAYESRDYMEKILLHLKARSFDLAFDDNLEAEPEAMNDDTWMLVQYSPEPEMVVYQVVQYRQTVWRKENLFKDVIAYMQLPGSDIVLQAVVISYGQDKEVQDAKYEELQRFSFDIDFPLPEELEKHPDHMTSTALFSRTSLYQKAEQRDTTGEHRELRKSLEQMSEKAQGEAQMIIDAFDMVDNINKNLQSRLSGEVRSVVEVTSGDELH

T3: GST-Elba1 BEN;GST-Elba2 BEN (Drosophila melanogaster?;Drosophila …, UniProt Q9VR17;Q9VQD6 255-363;268-381, |)
T3 sequence 1: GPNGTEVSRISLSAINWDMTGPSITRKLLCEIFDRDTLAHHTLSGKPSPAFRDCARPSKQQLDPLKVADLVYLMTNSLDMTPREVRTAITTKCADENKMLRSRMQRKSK
T3 sequence 2: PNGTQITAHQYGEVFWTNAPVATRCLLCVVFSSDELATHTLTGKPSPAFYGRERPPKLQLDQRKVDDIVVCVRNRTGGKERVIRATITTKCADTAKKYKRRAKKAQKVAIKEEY

T4: Elba1;Elba2;Elba3 (Drosophila melanogaster?;Drosophila …, UniProt Q9VR17;Q9VQD6;Q9VR19 1-363;1-381;1-379, ||)
T4 sequence 1: T1 sequence 1
T4 sequence 2: T1 sequence 2
T4 sequence 3: T2 sequence 3

T5: GST-Elba1F;GST-Elba2F;FLAG-Elba3F (Drosophila melanogaster?;Drosophila …, UniProt Q9VR17;Q9VQD6;Q9VR19 1-363;1-381;1-379, ||)
T5 sequence 1: T1 sequence 1
T5 sequence 2: T1 sequence 2
T5 sequence 3: T2 sequence 3

B1: Elba probe 27 bp (WT) (dsDNA)
DNA 1: TGCAGCGCCCAATAAGCAAATGGCAGC
DNA 2: GCTGCCATTTGCTTATTGGGCGCTGCA
B2: M6 oligo (dsDNA)
DNA 1: TGCAGCGCCCAATAAGCAAATGTACGC
DNA 2: GCGTACATTTGCTTATTGGGCGCTGCA
modifications: 3-bp substitution

Assays:
[1] = molecular target: T1, GST-Elba1F;GST-Elba2F; assay: EMSA; co-translated; EMSA: ~0.1 M KCl, 12.5-250 ug/ml poly(dI-dC):poly(dI-dC), 1/2 hr at room temperature, 4% acrylamide gel, otherwise as Aoki et al. 2008; affinity beads: HBB (10); conditions: protein: ivt;ivt; tags: N-terminal FLAG and GST;N-terminal FLAG and GST; copies: 1;1
[2] = molecular target: T2, FLAG-Elba1F;FLAG-Elba2F;FLAG-Elba3F; assay: EMSA; EMSA: ~0.1 M KCl, 12.5-250 ug/ml poly(dI-dC):poly(dI-dC), 1/2 hr at room temperature, 4% acrylamide gel, otherwise as Aoki et al. 2008; affinity beads: HBB (10); conditions: protein: ivt;ivt;ivt; tags: N-terminal FLAG;N-terminal FLAG;N-terminal FLAG; copies: 1;1;1
[3] = molecular target: T3, GST-Elba1 BEN;GST-Elba2 BEN; assay: as above; conditions: protein: ivt;ivt; tags: N-terminal FLAG and GST;N-terminal FLAG and GST; copies: 1;1
[4] = molecular target: T4, Elba1;Elba2;Elba3; assay: as above; conditions: protein: ivt;ivt;ivt; tags: none;none;none; copies: 1;1;1
[5] = molecular target: T5, GST-Elba1F;GST-Elba2F;FLAG-Elba3F; assay: EMSA; supershift by Elba3; EMSA: ~0.1 M KCl, 12.5-250 ug/ml poly(dI-dC):poly(dI-dC), 1/2 hr at room temperature, 4% acrylamide gel, otherwise as Aoki et al. 2008; affinity beads: HBB (10); conditions: protein: ivt;ivt;ivt; tags: N-terminal FLAG and GST;N-terminal FLAG and GST;N-terminal FLAG; copies: 1;1;1
[6] = molecular target: T4, Elba1;Elba2;Elba3; assay: competition; 100-fold excess; EMSA: ~0.1 M KCl, 12.5-250 ug/ml poly(dI-dC):poly(dI-dC), 1/2 hr at room temperature, 4% acrylamide gel, otherwise as Aoki et al. 2008; affinity beads: HBB (10); conditions: protein: ivt;ivt;ivt; tags: none;none;none; copies: 1;1;1; label: none

Binder | binding result [1] | binding result [2] | binding result [3] | binding result [4] | binding result [5] | binding result [6]
B1 | binds | binds | no binding | binds | binds | 
B2 |  |  |  |  |  | binds
